# Biological target: ubc4_yeast UBC4 (UniProt P15731)
# Sequence (P15731 whole entry): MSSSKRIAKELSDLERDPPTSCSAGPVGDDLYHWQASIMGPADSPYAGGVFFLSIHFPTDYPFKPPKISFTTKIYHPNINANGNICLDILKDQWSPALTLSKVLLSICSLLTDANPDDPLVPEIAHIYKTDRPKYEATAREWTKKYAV
row,Substance,effect of a mutation on the interaction
1,"E3 ubiquitin-protein ligase RSP5 (Saccharomyces cerevisiae), P39940 Y647M",decreasing interaction strength
2,"E3 ubiquitin-protein ligase RSP5 (Saccharomyces cerevisiae), P39940 W597M",disrupting interaction strength
3,"E3 ubiquitin-protein ligase RSP5 (Saccharomyces cerevisiae), P39940 D614M",decreasing interaction strength

# More lines, now with the values ahead:
row,effect of a mutation on the interaction,Substance
1,decreasing interaction strength,"E3 ubiquitin-protein ligase RSP5 (Saccharomyces cerevisiae), P39940 L607M"
2,decreasing interaction strength,"E3 ubiquitin-protein ligase RSP5 (Saccharomyces cerevisiae), P39940 S594M"

# Source: IntAct's records for PubMed 22483105
